Source: patent US20130337002A1

Experiments:
Test in all cases: REVEAL MHC-peptide binding
HLA-A1 = target: HLA-A1
HLA-B8 = target: HLA-B8
HLA-B7 = target: HLA-B7
HLA-A3 = target: HLA-A3
HLA-B27 = target: HLA-B27
HLA-B15 = target: HLA-B15
HLA-A2 = target: HLA-A2
HLA-A11 = target: HLA-A11
HLA-A29 = target: HLA-A29
HLA-B14 = target: HLA-B14
HLA-B35 = target: HLA-B35
HLA-A24 = target: HLA-A24

Substance | % of positive control (HLA-A1) | % of positive control (HLA-B8) | % of positive control (HLA-B7) | % of positive control (HLA-A3) | % of positive control (HLA-B27) | % of positive control (HLA-B15) | % of positive control (HLA-A2) | % of positive control (HLA-A11) | % of positive control (HLA-A29) | % of positive control (HLA-B14) | % of positive control (HLA-B35) | % of positive control (HLA-A24)
AEL[Nle]GYIPL (peptide) | 16.6% | 14.7% | 1.11% | 3.05% | 0.77% | 10.2% | 7.49% | 3.61% | 20.8% | 0.12% | 1.91% | 0.37%
EL[Nle]GYIPLI (peptide) | 18.3% | 17.1% | 0.68% | 4.54% | 0.67% | 8.91% | 97.9% | 3.21% | 20.9% | 0.14% | 2.55% | 0.92%
GP[Cit]IGVRAT (peptide) | 18.6% | 9.99% | 5.38% | 3.48% | 0.59% | 7.29% | 9.16% | 2.72% | 11.9% | 0.13% | 2.25% | 0.16%
L[Nle]GYIPLIG (peptide) | 14.3% | 17.3% | 0.89% | 3.98% | 0.73% | 14.6% | 49.5% | 2.48% | 25.9% | 0.15% | 2.85% | 0.71%
P[Cit]IGVRAT[Cit] (peptide) | 18.8% | 9.47% | 1.91% | 2.52% | 0.94% | 12.6% | 7.36% | 1.72% | 14.1% | 0.19% | 2.45% | 0.21%
[Cit]IGVRAT[Cit]R (peptide) | 19.7% | 12.1% | 14.6% | 25.2% | 0.86% | 14.4% | 8.17% | 8.27% | 16.7% | 0.17% | 8.51% | 0.5%
[Nle]GYIPLIGA (peptide) | 17.9% | 21.4% | 1.78% | 3.13% | 1.42% | 11.1% | 10.4% | 7.27% | 27.9% | 0.29% | 5.89% | 1.33%
